The text below walks through data of the RNAGym collection of RNA variant scans (doi:10.7554/elife.90254).

B1: LINE1-full (parent)
chain: UACGUAGGUGGUUUUCCCCUGAUAGUGCUAAGGGGGCCUGGAAGUUUGGACUGGGCAGAGCUCAACACAGCGUGGCAAAGUGGCUGUGGCUAGACUGCCUCUCUGGAUUCCUCGUCACUCAGCAGGGCAUCUCUGAGAGAAAUGCC

The variants in this series derive from B1. The experiment in a line: self-cleavage, relative activity (ratio to wild type); higher = more cleavage; in vitro, sequencing; the parent is a self-cleaving ribozyme.
In the case of U12A U143A, the self-cleavage is 1.28.

As to U12A U143C, the self-cleavage came to 1.14.

U12A A138U: the self-cleavage stood at 1.02.

Regarding U12G G54A, the self-cleavage came to 0.63.

Turning to U12A C76U, the self-cleavage came out at 1.23.

For the variant U13C G32A, the self-cleavage amounted to 0.99.

Take U13C G32C: the self-cleavage stood at 0.7.

On to U13C G32U, for which the self-cleavage worked out at 1.2.

In the case of U12C A22U, the self-cleavage is 1.68.

On to U13C C28U, for which the self-cleavage turned out to be 0.64.

As to U12G A79U, the self-cleavage was 1.3.

With U12G U87C, the self-cleavage amounted to 0.16.

Take U12G U87A: the self-cleavage came out at 0.09.

Turning to U13A U102G, the self-cleavage came out at 0.41.

With U13A U102C, the self-cleavage was 0.84.

Take U12G A42G: the self-cleavage came out at 1.42.

U12G U73C: the self-cleavage stood at 1.54.

U12G U73A: the self-cleavage worked out at 1.68.

On to U13A G114A, for which the self-cleavage was determined as 1.03.

Turning to U13C C61U, the self-cleavage is 0.

Take U13C C99G: the self-cleavage turned out to be 0.39.

As for U13A U46C, the self-cleavage was 0.77.

U12G G58A: the self-cleavage amounted to 0.11.

On to U12G A78G, for which the self-cleavage stood at 0.

For U13C A42G, the self-cleavage worked out at 1.19.

U13C A42U: the self-cleavage came out at 0.88.

As to U12G G36A, the self-cleavage worked out at 0.22.

U12G U47A: the self-cleavage turned out to be 0.95.

Take U12A U91C: the self-cleavage was found to be 0.54.

As for U12A U91A, the self-cleavage worked out at 0.82.

For U12C U26C, the self-cleavage worked out at 1.39.

As for U12C U26A, the self-cleavage came out at 1.03.

Consider U12C A117G, for which the self-cleavage was found to be 1.84.

With U13C C51G, the self-cleavage was determined as 1.44.

In the case of U12C U47C, the self-cleavage was 1.42.

In the case of U12C U20G, the self-cleavage came to 0.78.

Turning to U12C U20A, the self-cleavage was 1.23.

For the variant U13A U15A, the self-cleavage is 0.59.

In the case of U12G C145G, the self-cleavage was 0.99.

Consider U12G A138G, for which the self-cleavage was 1.29.

As for U12G A77U, the self-cleavage was 0.78.

U12G A77C: the self-cleavage is 0.69.

In the case of U12C A124U, the self-cleavage was 1.29.

Take U13A C103A: the self-cleavage stood at 1.04.

With U13A A94G, the self-cleavage worked out at 0.19.

Regarding U12G U134C, the self-cleavage amounted to 1.19.

For U12C A79G, the self-cleavage was 1.1.

With U12C U134G, the self-cleavage stood at 1.97.

In the case of U12C U134C, the self-cleavage is 1.3.

For the variant U12C A69U, the self-cleavage came out at 0.09.

As to U12C A69G, the self-cleavage was determined as 0.64.

Regarding U13A G34A, the self-cleavage is 1.13.

For U12C U45C, the self-cleavage was 0.98.

For U12C U45G, the self-cleavage is 1.35.

U12C U45A: the self-cleavage came to 0.88.

For U12A U52G, the self-cleavage worked out at 2.35.

Regarding U12C C56A, the self-cleavage stood at 0.01.

With U12A A107U, the self-cleavage amounted to 1.61.

Consider U13A U47C, for which the self-cleavage turned out to be 0.59.

For U12G G44U, the self-cleavage was determined as 1.1.

In the case of U12A U87A, the self-cleavage was found to be 0.11.

With U12C U87A, the self-cleavage is 0.06.

On to U13A G54U, for which the self-cleavage came to 0.51.

Take U13C A124C: the self-cleavage amounted to 1.67.

Regarding U13C A124U, the self-cleavage came to 1.28.

As to U13A G21U, the self-cleavage was determined as 0.47.

Take U13A U119A: the self-cleavage came to 1.06.

Take U12A U112C: the self-cleavage is 1.3.

For the variant U13A C51A, the self-cleavage came out at 0.75.

In the case of U13C A94U, the self-cleavage amounted to 0.42.

On to U13C A94C, for which the self-cleavage came out at 0.11.

Consider U13C A138G, for which the self-cleavage was 1.6.

As to U13A A121G, the self-cleavage came out at 0.88.

In the case of U13A A140U, the self-cleavage was 0.89.

Regarding U12A U23C, the self-cleavage was determined as 1.47.

Regarding U12A U23A, the self-cleavage stood at 1.58.

For U13A A59G, the self-cleavage is 0.07.

Take U12C G34C: the self-cleavage was determined as 1.34.

Take U13C A65C: the self-cleavage was determined as 0.15.

On to U13C A65U, for which the self-cleavage was 0.2.

Consider U12A C16A, for which the self-cleavage was found to be 0.97.

For U12A C51A, the self-cleavage was determined as 1.16.

With U13C G33A, the self-cleavage came out at 0.81.

As for U12G U14A, the self-cleavage stood at 0.44.

For U12G A59G, the self-cleavage came to 0.23.

Regarding U12A A31U, the self-cleavage worked out at 2.

For U12A A59C, the self-cleavage came to 0.61.

As to U12A A59G, the self-cleavage is 0.27.

U12C G41U: the self-cleavage came to 1.25.

Turning to U13A U52C, the self-cleavage came out at 1.78.

For the variant U13C C131U, the self-cleavage turned out to be 1.79.

U12C C17U: the self-cleavage is 1.3.

Turning to U13C A142G, the self-cleavage amounted to 1.3.

As for U13C G25A, the self-cleavage worked out at 1.31.

As to U12G U23C, the self-cleavage is 1.32.

As for U13A C99U, the self-cleavage is 0.46.

For U12G A129U, the self-cleavage was 1.49.

Consider U12G U81G, for which the self-cleavage worked out at 0.68.

As for U12G U81A, the self-cleavage turned out to be 2.33.

As for U13C C118U, the self-cleavage was found to be 0.99.

With U12A A117U, the self-cleavage turned out to be 1.36.

Regarding U13A U45C, the self-cleavage worked out at 1.01.

Take U13C C17A: the self-cleavage came out at 1.4.

On to U12C C19U, for which the self-cleavage was determined as 1.08.

Regarding U12G C113A, the self-cleavage stood at 1.84.

Consider U12A U102A, for which the self-cleavage amounted to 1.79.

With U13C A141C, the self-cleavage came to 1.59.

As to U13C A141U, the self-cleavage was found to be 1.57.

Take U13C A141G: the self-cleavage came out at 1.18.

As to U13C C120G, the self-cleavage was 1.48.

As for U12A A136G, the self-cleavage turned out to be 2.03.

With U12C U91A, the self-cleavage amounted to 0.64.

As for U12C U15C, the self-cleavage came to 1.05.

On to U12C U15A, for which the self-cleavage came to 0.7.

As for U12A U14A, the self-cleavage was 0.27.

On to U12A G21A, for which the self-cleavage worked out at 1.08.

With U12C A59G, the self-cleavage came to 0.15.

As for U12C C38U, the self-cleavage stood at 1.16.

On to U12C U23A, for which the self-cleavage stood at 1.08.

As to U12G U39A, the self-cleavage was 1.05.

Consider U13C A107U, for which the self-cleavage is 1.14.

Take U13A U130A: the self-cleavage amounted to 1.15.

Regarding U13C G27A, the self-cleavage turned out to be 0.85.

Turning to U12G U104A, the self-cleavage is 1.76.

For U12G C90U, the self-cleavage worked out at 0.08.

With U13A A138G, the self-cleavage stood at 1.22.

Take U13A U20C: the self-cleavage was found to be 1.03.

As for U12C C120U, the self-cleavage was 1.43.

For U12C C120A, the self-cleavage worked out at 1.47.

Consider U13C A67U, for which the self-cleavage was found to be 0.16.

Consider U12G U45A, for which the self-cleavage is 1.3.

With U12G A31G, the self-cleavage is 0.87.

Regarding U13A C71A, the self-cleavage was 0.12.

As to U12C A50U, the self-cleavage worked out at 1.54.

Turning to U12C A50G, the self-cleavage was found to be 1.15.

In the case of U13A C38A, the self-cleavage was found to be 0.96.

Consider U13A A136U, for which the self-cleavage is 1.22.

Regarding U13A A136G, the self-cleavage stood at 1.38.

Turning to U13C G34U, the self-cleavage was determined as 1.99.

Consider U12G A141U, for which the self-cleavage is 1.29.

As for U12C C131U, the self-cleavage turned out to be 1.29.

For U12A A43G, the self-cleavage came to 0.85.

As for U12G U143A, the self-cleavage came out at 0.59.

Turning to U12G U108A, the self-cleavage came to 0.77.

As for U12G U108C, the self-cleavage amounted to 1.52.

For U12G A65G, the self-cleavage came out at 0.23.

As for U12C A142G, the self-cleavage is 1.13.

With U13C C19U, the self-cleavage was determined as 1.01.

Regarding U12G U109A, the self-cleavage came out at 1.47.

For the variant U12G A136G, the self-cleavage came to 1.72.

As to U12C U132A, the self-cleavage was 1.31.

Turning to U12C U132C, the self-cleavage was 1.13.

In the case of U12G A121C, the self-cleavage worked out at 1.29.

Consider U12G A121G, for which the self-cleavage was 1.4.

Take U12C G106A: the self-cleavage turned out to be 1.68.

In the case of U12C G75C, the self-cleavage was determined as 0.66.

Regarding U12A A64G, the self-cleavage came out at 0.27.

U12A A64U: the self-cleavage stood at 0.79.

Consider U13A A65G, for which the self-cleavage amounted to 0.08.

As for U13A A65U, the self-cleavage amounted to 0.09.

As to U12A G70A, the self-cleavage amounted to 0.18.

With U12G U130G, the self-cleavage came to 0.77.

For U12G U130C, the self-cleavage was 1.43.

Take U12A U119C: the self-cleavage worked out at 1.54.

With U12A U62C, the self-cleavage came to 0.12.

With U12A U62G, the self-cleavage is 0.06.

As to U12A U62A, the self-cleavage turned out to be 0.05.
